Results: US20100204091A1 (YEDA RESEARCH AND DEVELOPMENT, published 2010)
No end group written: not given here.

Columns and labels:
[1] = biological target: T1, NF-κB-inducing kinase, NIK, (MAP3K14) (human, UniProt Q99558 1-947); assay: yeast two-hybrid, human bone-marrow library, NIK as bait
T1 construct: in yeast two-hybrid used as bait fusion; also called myc-NIK; wild type NIK
Protocol: Yeast two-hybrid screening: The system used for screening was the Matchmaker version III (clontech). The prey was pre-transformed human bone marrow library (cat# HY4053AH) that offers high stringent quadruple drop out (QDO) selection along with a-gal assay. Clones growing on plates without LEU, TRP, HIS and ADE were reconfirmed by a-gal assay, which is much more specific than the usual, often leaky, b-gal assay. Plasmids of the positive clones were prepared as follows. Single clones were inoculated into QDO liquid broth and grown overnight at 37° C. Cells were pelleted at 10,000 g and resuspended in 200 μl of buffer containing 2% Triton X-100, 1% SDS, 100 mM NaCl, 10 mM Tris pH8.0, and 1 mM EDTA. The lysates were vortexed for 2 min after adding 200 μl of phenol: chloroform: isoamyl alcohol (25:24:1) and 0.3 g of 600 microns acid washed glass beads (Sigma). Supernatant was collected by centrifugation at 12,000 g and the DNA was precipitated by sodium acetate/ethanol precipitation method (Sambrook et al., 1989). Encoded inserts from the plasmids were amplified by PCR with the primers specific for the library vector pACT2. For further biochemical analysis of individual clones, the amplicons were directly cloned into the N-terminally HIS tagged mammalian expression vector pcDNA3.1 (Invitrogen).

FLAG tagged TRAF2 [2] = biological target: T2, FLAG tagged TRAF2 (UniProt Q12933 1-501); assay: in vitro incubation of eluted FLAG TRAF2 with bacterial GST tagged SIVA2, anti-FLAG IP, anti SIVA blot
T2 construct: For in vitro assays purified on anti-FLAG M2 beads and eluted with FLAG peptide; also called FLAG-TRAF2
T2 sequence (looked up): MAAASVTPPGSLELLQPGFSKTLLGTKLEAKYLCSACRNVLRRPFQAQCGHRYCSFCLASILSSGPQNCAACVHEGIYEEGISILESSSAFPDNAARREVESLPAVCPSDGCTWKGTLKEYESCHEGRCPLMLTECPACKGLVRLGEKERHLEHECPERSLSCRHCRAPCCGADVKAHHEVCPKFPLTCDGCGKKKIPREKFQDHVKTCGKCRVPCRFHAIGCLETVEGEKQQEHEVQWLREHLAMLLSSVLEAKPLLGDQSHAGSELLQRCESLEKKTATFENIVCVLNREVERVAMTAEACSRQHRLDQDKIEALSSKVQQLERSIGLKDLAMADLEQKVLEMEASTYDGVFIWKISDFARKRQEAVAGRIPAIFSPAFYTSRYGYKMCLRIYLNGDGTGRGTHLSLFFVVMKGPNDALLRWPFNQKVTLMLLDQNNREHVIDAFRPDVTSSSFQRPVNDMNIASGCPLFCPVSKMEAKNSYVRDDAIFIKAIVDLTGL
Protocol: (§1) In order to explore whether TRAF2 binds to SIVA2, FLAG tagged TRAF2 was immuno-precipitated from transfected […] cells using anti-FLAG M2 beads. TRAF2 was eluted from the beads using FLAG peptide. The eluted FLAG tagged TRAF2 was incubated with recombinant (bacterially expressed) GST tagged SIVA2 or GST tagged ring finger mutant SIVA2 at 30° C. for one hour in a volume of 50 μl of buffer (30 mM HEPES, pH 7.6, 5 mM MgCl2, 0.2 mM DTT). Next, the binding mix was diluted to 1 ml to attain the following composition −30 mM HEPES, 5 mM MgCl2, 0.2 mM DTT, 150 mM NaCl, 1% Triton X100 and 1 mM EDTA. Immunoprecipitation was carried out with anti-FLAG for TRAF2 and Western blotting analysis was carried out with anti SIVA to detect coprecipitating SIVA. […] The latter was confirmed in the following experiment. HEK 293T cells were co-transfected with 12 ug of HIS-SIVA2 or deletions of SIVA2 lacking the ring finger (SIVA2 1-58 and SIVA 1-81) and FLAG-TRAF2 by calcium phosphate method. 24 hours post transfection; cells were harvested and lysed in 1% Triton containing lysis buffer. TRAF2 was immunoprecipitated using anti FLAG-M2 beads and coprecipitated SIVA2 was probed by Western blotting using anti HIS antibody. Total lysis in FIG. 11D show the expression levels of the proteins. […] (FIG. 11D).

[3] = biological target: T1, NF-κB-inducing kinase, NIK, (MAP3K14); assay: co-immunoprecipitation from transfected cells (deletion analysis)
FLAG tagged TRAF2 [4] = biological target: T2, FLAG tagged TRAF2; assay: co-immunoprecipitation with anti FLAG-M2 beads from transfected HEK 293T cells, anti HIS blot
Protocol: as §1

T1 sequence (Q99558 whole entry, the tested form may be a part): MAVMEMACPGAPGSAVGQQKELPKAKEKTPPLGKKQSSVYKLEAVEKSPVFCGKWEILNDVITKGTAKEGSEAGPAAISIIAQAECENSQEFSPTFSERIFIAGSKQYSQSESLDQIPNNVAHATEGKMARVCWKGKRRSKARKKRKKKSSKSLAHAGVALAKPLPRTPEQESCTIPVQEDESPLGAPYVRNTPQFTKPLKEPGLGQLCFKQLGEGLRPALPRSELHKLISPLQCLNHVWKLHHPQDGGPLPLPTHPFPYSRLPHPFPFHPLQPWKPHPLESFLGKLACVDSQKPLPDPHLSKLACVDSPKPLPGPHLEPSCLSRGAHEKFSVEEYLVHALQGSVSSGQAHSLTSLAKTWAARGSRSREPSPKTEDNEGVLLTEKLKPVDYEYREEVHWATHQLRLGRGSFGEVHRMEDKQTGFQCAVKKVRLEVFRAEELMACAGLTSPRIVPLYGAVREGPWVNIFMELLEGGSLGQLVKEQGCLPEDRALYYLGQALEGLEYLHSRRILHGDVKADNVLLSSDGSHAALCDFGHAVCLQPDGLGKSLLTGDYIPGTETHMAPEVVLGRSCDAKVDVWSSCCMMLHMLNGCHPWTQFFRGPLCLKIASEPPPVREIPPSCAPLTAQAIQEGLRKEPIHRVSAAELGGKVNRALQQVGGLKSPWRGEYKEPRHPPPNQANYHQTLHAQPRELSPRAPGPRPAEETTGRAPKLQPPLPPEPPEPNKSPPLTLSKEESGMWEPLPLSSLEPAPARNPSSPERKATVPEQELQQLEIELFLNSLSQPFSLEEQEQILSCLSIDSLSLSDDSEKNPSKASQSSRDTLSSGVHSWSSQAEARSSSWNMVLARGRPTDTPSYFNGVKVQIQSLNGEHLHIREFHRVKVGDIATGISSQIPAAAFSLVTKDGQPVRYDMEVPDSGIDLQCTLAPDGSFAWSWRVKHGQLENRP

B1: SIVA-C (C-terminal part of SIVA, amino acids 123-175 in SIVA1 or 58-110 in SIVA2) (other)
chain: KAVCGQCERALCGQCVRTCWGCGSVACTLCGLVDCSDMYEKVLCTSCAMFET
notes: Prey fragment from a human bone marrow two-hybrid library; in mammalian cells HIS tagged; also called SIVA-C terminus; C-terminal fragment of SIVA
Q: Does B1 bind [1]?
A: binds

B2: GST-SIVA2 (bacterially expressed GST tagged SIVA2) (other)
chain: MPKRSCPFADVAPLQLKVRVSQRELSRGVCAERYSQEVFDPSGVASIACSSCVRAVDGKAVCGQCERALCGQCVRTCWGCGSVACTLCGLVDCSDMYEKVLCTSCAMFET
notes: Cloned into pGEX and expressed in BL-21 cells; also called recombinant GST-SIVA; recombinant SIVA2; not shown: glutathione S-transferase tag of the pGEX vector
Q: Does B2 bind (FLAG tagged TRAF2 [2])?
A: binds

B3: SIVA2 1-58 (other)
chain: MPKRSCPFADVAPLQLKVRVSQRELSRGVCAERYSQEVFDPSGVASIACSSCVRAVDG
modifications: cysteine pairing not given here; also: His tag, sequence and position not given here
notes: HIS tagged deletion mutant lacking ring and zinc fingers; also called SIVA 1-58; SIVA2 N-terminus
Q: Does B3 bind [3]?
A: no binding

Q: Does B3 bind (FLAG tagged TRAF2 [4])?
A: no binding
